Assay results taken from publication PMC12557481.

B1: DNAp21 (EMSA) (dsDNA)
DNA 1: GAACATGTCCCAACATGTTGGGCGTCGGCTGTCGGAGGAACATGTCCCAACATGTTG
DNA 2: CAACATGTTGGGACATGTTCCTCCGACAGCCGACGCCCAACATGTTGGGACATGTTC
B2: DNAmdm2 (EMSA) (dsDNA)
DNA 1: GGTCAAGTTGGGACACGTCCGGCGTCGGCTGTCGGAGGAGCTAAGTCCTGACATGTCT
DNA 2: AGACATGTCAGGACTTAGCTCCTCCGACAGCCGACGCCGGACGTGTCCCAACTTGACC
B3: DNAp21 (AUC) (dsDNA)
DNA 1: CTCAACATGTTGGGACATGTTCCT
DNA 2: AGGAACATGTCCCAACATGTTGAG
B4: DNAmdm2 (AUC) (dsDNA)
DNA 1: B2 DNA 1
DNA 2: B2 DNA 2

Tests used:
p53_WT [1] = molecular target: T1, p53_WT (human, UniProt P04637 1-393); assay: EMSA
p53_WT [2] = molecular target: T1, p53_WT; assay: AUC
p53_WT [3] = molecular target: T1, p53_WT; assay: AUC; remark: listed apart in the source

T1 sequence (P04637 whole entry): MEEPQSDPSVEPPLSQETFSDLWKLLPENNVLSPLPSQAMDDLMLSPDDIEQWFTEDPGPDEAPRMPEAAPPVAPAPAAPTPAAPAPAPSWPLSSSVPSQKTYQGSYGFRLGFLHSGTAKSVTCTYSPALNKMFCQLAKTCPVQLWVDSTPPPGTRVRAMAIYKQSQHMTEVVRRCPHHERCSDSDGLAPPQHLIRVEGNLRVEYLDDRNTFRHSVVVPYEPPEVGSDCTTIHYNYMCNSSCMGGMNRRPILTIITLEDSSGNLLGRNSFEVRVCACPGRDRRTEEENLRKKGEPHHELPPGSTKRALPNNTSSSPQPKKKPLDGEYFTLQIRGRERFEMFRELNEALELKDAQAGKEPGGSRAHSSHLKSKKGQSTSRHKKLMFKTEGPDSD

| Binder | binding result (p53_WT [1]) | also measured |
| --- | --- | --- |
| B1 | binds |  |
| B2 | binds |  |
| B3 |  | binding result (p53_WT [2]): binds |
| B4 |  | binding result (p53_WT [3]): binds |
